The results in this text go back to IntAct's records for PubMed 29176668.

The assay has as its target ATP2A2, P16615-1.

ATP2A2, P16615-1, sequence (P16615 whole entry): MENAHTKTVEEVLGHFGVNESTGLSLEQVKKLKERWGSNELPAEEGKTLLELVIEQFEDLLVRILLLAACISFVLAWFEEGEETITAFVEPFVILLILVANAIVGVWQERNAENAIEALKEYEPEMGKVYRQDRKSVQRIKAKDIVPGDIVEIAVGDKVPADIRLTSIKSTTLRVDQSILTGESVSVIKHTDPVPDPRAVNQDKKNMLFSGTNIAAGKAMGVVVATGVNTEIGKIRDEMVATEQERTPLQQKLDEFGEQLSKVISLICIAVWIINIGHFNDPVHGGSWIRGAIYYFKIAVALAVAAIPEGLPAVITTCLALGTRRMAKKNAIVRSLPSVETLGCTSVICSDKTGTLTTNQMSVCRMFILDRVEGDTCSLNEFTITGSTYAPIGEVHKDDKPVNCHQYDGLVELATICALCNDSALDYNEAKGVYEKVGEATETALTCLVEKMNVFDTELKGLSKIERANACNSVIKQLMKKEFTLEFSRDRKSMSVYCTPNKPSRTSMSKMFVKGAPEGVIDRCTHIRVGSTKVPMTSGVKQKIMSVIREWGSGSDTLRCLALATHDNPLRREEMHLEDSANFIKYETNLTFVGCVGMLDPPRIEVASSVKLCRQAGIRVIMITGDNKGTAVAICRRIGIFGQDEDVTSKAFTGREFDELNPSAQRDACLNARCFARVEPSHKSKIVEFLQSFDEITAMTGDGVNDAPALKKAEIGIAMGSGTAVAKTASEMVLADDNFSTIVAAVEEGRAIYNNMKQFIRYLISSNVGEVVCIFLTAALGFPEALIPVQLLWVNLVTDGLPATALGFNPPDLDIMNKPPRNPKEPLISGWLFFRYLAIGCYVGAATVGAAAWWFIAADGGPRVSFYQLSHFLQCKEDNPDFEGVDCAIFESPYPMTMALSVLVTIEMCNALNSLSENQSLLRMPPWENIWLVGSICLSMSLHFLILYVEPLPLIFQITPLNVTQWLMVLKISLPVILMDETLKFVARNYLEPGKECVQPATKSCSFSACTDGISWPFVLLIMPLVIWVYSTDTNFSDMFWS

With “Piezo-type mechanosensitive ion channel component 1 (Mus musculus), E2JF22 E2172A;K2173A;K2174A;Y2175A;P2176A;Q2177A;P2178A;K2179A;G2180A;Q2181A”, the “effect of a mutation on the interaction” value was “decreasing interaction strength”.

On to “Piezo-type mechanosensitive ion channel component 1 (Mus musculus), E2JF22 K2182A;K2183A;K2184A;K2185A”, for which the “effect of a mutation on the interaction” value is listed as “decreasing interaction strength”.
